Source: US20170306033A1 (Amgen, published 2017)

T1: human PAC1 receptor (human, UniProt P41586 21-468)
T1 sequence: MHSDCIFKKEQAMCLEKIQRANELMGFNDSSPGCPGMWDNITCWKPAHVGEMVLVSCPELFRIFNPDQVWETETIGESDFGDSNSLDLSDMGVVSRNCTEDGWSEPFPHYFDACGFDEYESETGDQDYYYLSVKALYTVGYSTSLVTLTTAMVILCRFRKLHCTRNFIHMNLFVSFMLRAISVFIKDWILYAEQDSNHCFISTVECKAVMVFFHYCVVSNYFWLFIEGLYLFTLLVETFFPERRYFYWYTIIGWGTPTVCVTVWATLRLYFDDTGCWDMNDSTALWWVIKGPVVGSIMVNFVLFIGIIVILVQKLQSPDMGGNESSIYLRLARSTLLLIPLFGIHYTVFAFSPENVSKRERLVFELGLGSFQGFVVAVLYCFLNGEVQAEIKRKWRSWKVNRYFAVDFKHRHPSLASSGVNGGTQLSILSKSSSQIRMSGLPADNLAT


Tests used:
human CGRP receptor = human CGRP receptor (human, UniProt Q16602 23-461; O60894 27-148); test: cell-based or functional assay
human PAC1 receptor = target: T1, human PAC1 receptor; test: cell-based or functional assay

Sequence of human CGRP receptor (Q16602 23-461 limits assumed, chain 1 of 2): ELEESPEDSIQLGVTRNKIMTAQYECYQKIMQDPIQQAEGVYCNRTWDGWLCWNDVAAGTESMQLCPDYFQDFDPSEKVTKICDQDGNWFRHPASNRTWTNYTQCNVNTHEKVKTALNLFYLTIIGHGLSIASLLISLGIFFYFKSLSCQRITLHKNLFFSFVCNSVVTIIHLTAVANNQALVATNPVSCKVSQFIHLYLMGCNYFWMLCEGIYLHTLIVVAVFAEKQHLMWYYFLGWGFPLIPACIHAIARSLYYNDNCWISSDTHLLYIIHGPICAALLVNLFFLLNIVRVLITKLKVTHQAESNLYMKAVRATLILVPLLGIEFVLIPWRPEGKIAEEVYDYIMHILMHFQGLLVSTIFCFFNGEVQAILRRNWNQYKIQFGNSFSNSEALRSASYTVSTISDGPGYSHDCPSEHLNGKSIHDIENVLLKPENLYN
Sequence of human CGRP receptor (O60894 27-148 limits assumed, chain 2 of 2): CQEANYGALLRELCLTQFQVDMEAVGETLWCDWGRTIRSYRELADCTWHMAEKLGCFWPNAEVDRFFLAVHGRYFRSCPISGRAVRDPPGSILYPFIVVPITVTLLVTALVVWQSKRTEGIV

Binder | % inhibition of human CGRPR (human CGRP receptor) | % inhibition of human PAC1 (human PAC1 receptor)
iPS:327740 (bispecific antibody, human IgG1, kappa, lambda, N297G) light 1: not shown heavy 1: not shown light 2: QSVLTQPPSVSAAPGQKVTISCSGSSSNIGNNYVSWYQQLPGTAPKLLIYDNNKRPSGIPDRFSGSKSGTSATLGITGLQTGDEADYYCGTWDSRLSAVVFGGGTKLTVLGQPKANPTVTLFPPSSEELQANKATLVCLISDFYPGAVTVAWKADGSPVKAGVETTKPSKQSNNKYAAKSYLSLTPEQWKSHRSYSCQVTHEGSTVEKTVAPTECS heavy 2: QVQLVESGGGVVQPGRSLRLSCAASGFTFSSFGMHWVRQAPGKGLEWVAVISFDGSIKYSVDSVKGRFTISRDNSKNTLFLQMNSLRAEDTAVYYCARDRLNYYESSGYYHYKYYGMAVWGQGTTVTVSSASTKGPSVFPLAPSSKSTSGGTAALGCLVKDYFPEPVTVSWNSGALTSGVHTFPAVLQSSGLYSLESVVTVPSSSLGTQTYICNVNHKPSNTKVDKKVEPKSCDKTHTCPPCPAPELLGGPSVFLFPPKPKDTLMISRTPEVTCVVVDVSHEDPEVKFNWYVDGVEVHNAKTKPCEEQYGSTYRCVSVLTVLHQDWLNGKEYKCKVSNKALPAPIEKTISKAKGQPREPQVYTLPPSRKKMTKNQVSLTCLVKGFYPSDIAVEWESNGQPENNYKTTPPVLKSDGSFFLYSKLTVDKSRWQQGNVFSCSVMHEALHNHYTQKSLSLSPGK | 74% | 58%
iPS:327742 (bispecific antibody, human IgG1, kappa, lambda, N297G) light 1: EIVLTQSPATLSLSPGERATLSCRASQSVGRSLHWYQQKPGQAPRLLIKYASQSLSGIPARFSGSGSGTDFTLTISSLEPEDFAVYYCHQSSRLPFTFGPGTKVDIKRTVAAPSVFIFPPSDEQLKSGTASVVCLLNNFYPREAKVQWKVDNALQSGNSQESVTEQDSKDSTYSLESTLTLSKADYEKHKVYACEVTHQGLSSPVTKSFNRGEC heavy 1: not shown light 2: QSVLTQPPSVSAAPGQKVTISCSGSSSNIGNNYVSWYQQLPGTAPKLLIYDNNKRPSGIPDRFSGSKSGTSATLGITGLQTGDEADYYCGTWDSRLSAVVFGGGTKLTVLGQPKANPTVTLFPPSSEELQANKATLVCLISDFYPGAVTVAWKADGSPVKAGVETTKPSKQSNNKYAAKSYLSLTPEQWKSHRSYSCQVTHEGSTVEKTVAPTECS heavy 2: QVQLVESGGGVVQPGRSLRLSCAASGFTFSSFGMHWVRQAPGKGLEWVAVISFDGSIKYSVDSVKGRFTISRDNSKNTLFLQMNSLRAEDTAVYYCARDRLNYYESSGYYHYKYYGMAVWGQGTTVTVSSASTKGPSVFPLAPSSKSTSGGTAALGCLVKDYFPEPVTVSWNSGALTSGVHTFPAVLQSSGLYSLESVVTVPSSSLGTQTYICNVNHKPSNTKVDKKVEPKSCDKTHTCPPCPAPELLGGPSVFLFPPKPKDTLMISRTPEVTCVVVDVSHEDPEVKFNWYVDGVEVHNAKTKPCEEQYGSTYRCVSVLTVLHQDWLNGKEYKCKVSNKALPAPIEKTISKAKGQPREPQVYTLPPSRKKMTKNQVSLTCLVKGFYPSDIAVEWESNGQPENNYKTTPPVLKSDGSFFLYSKLTVDKSRWQQGNVFSCSVMHEALHNHYTQKSLSLSPGK | 84% | 96%
iPS:327878 (bispecific antibody, human IgG1, kappa, lambda, N297G) light 1: DIQMTQSPSSLSASVGDRITITCRASQSISRYLNWYQQKPGKAPKLLIYAASSLQSGIPSRFSGSGSGTDFTLTINSLQPEDFATYFCQQSYSPPFTFGQGTKVDIKRTVAAPSVFIFPPSDEQLKSGTASVVCLLNNFYPREAKVQWKVDNALQSGNSQESVTEQDSKDSTYSLESTLTLSKADYEKHKVYACEVTHQGLSSPVTKSFNRGEC heavy 1: not shown light 2: QSVLTQPPSVSAAPGQKVTISCSGSSSNIGNNYVSWYQQLPGTAPKLLIYDNNKRPSGIPDRFSGSKSGTSTTLGITGLQTGDEADYYCGTWDSRLSAVVFGGGTKLTVLGQPKANPTVTLFPPSSEELQANKATLVCLISDFYPGAVTVAWKADGSPVKAGVETTKPSKQSNNKYAAKSYLSLTPEQWKSHRSYSCQVTHEGSTVEKTVAPTECS heavy 2: QVQLVESGGGVVQPGRSLRLSCAASGFTFSSFGMHWVRQAPGKGLEWVAVISFDGSIKYSVDSVKGRFTISRDNSKNTLFLQMNSLRAEDTAVYYCARDRLNYYESSGYYHYKYYGMAVWGQGTTVTVSSASTKGPSVFPLAPSSKSTSGGTAALGCLVKDYFPEPVTVSWNSGALTSGVHTFPAVLQSSGLYSLESVVTVPSSSLGTQTYICNVNHKPSNTKVDKKVEPKSCDKTHTCPPCPAPELLGGPSVFLFPPKPKDTLMISRTPEVTCVVVDVSHEDPEVKFNWYVDGVEVHNAKTKPCEEQYGSTYRCVSVLTVLHQDWLNGKEYKCKVSNKALPAPIEKTISKAKGQPREPQVYTLPPSRKEMTKNQVSLTCLVKGFYPSDIAVEWESNGQPENNYKTTPPVLKSDGSFFLYSKLTVDKSRWQQGNVFSCSVMHEALHNHYTQKSLSLSPGK | 75% | 42%
iPS:327741 (bispecific antibody, human IgG1, kappa, lambda, N297G) light 1: DIQLTQSPSFLSASVGDRVTITCRASQSIGRSLHWYQQKPGKAPKLLIKYASQSLSGVPSRFSGSGSGTEFTLTISSLQPEDFATYYCHQSSRLPFTFGPGTKVDIKRTVAAPSVFIFPPSDEQLKSGTASVVCLLNNFYPREAKVQWKVDNALQSGNSQESVTEQDSKDSTYSLESTLTLSKADYEKHKVYACEVTHQGLSSPVTKSFNRGEC heavy 1: not shown light 2: QSVLTQPPSVSAAPGQKVTISCSGSSSNIGNNYVSWYQQLPGTAPKLLIYDNNKRPSGIPDRFSGSKSGTSATLGITGLQTGDEADYYCGTWDSRLSAVVFGGGTKLTVLGQPKANPTVTLFPPSSEELQANKATLVCLISDFYPGAVTVAWKADGSPVKAGVETTKPSKQSNNKYAAKSYLSLTPEQWKSHRSYSCQVTHEGSTVEKTVAPTECS heavy 2: QVQLVESGGGVVQPGRSLRLSCAASGFTFSSFGMHWVRQAPGKGLEWVAVISFDGSIKYSVDSVKGRFTISRDNSKNTLFLQMNSLRAEDTAVYYCARDRLNYYESSGYYHYKYYGMAVWGQGTTVTVSSASTKGPSVFPLAPSSKSTSGGTAALGCLVKDYFPEPVTVSWNSGALTSGVHTFPAVLQSSGLYSLESVVTVPSSSLGTQTYICNVNHKPSNTKVDKKVEPKSCDKTHTCPPCPAPELLGGPSVFLFPPKPKDTLMISRTPEVTCVVVDVSHEDPEVKFNWYVDGVEVHNAKTKPCEEQYGSTYRCVSVLTVLHQDWLNGKEYKCKVSNKALPAPIEKTISKAKGQPREPQVYTLPPSRKKMTKNQVSLTCLVKGFYPSDIAVEWESNGQPENNYKTTPPVLKSDGSFFLYSKLTVDKSRWQQGNVFSCSVMHEALHNHYTQKSLSLSPGK | 83% | 70%
iPS:327871 (bispecific antibody, human IgG2, kappa, lambda) light 1: DIQLTQSPSFLSASVGDRVTITCRASQSIGRSLHWYQQKPGKAPKLLIKYASQSLSGVPSRFSGSGSGTEFTLTISSLQPEDFATYYCHQSSRLPFTFGPGTKVDIKRTVAAPSVFIFPPSDEQLKSGTASVVCLLNNFYPREAKVQWKVDNALQSGNSQESVTEQDSKDSTYSLESTLTLSKADYEKHKVYACEVTHQGLSSPVTKSFNRGEC heavy 1: QVQLVESGAEVVKPGASVKVSCKASGFTFSRFAMHWVRQAPGQGLEWMGVISYDGGNKYYAESVKGRVTMTRDTSTSTLYMELSSLRSEDTAVYYCARGYDVLTGYPDYWGQGTLVTVSSASTKGPSVFPLAPCSRSTSESTAALGCLVKDYFPEPVTVSWNSGALTSGVHTFPAVLQSSGLYSLKSVVTVPSSNFGTQTYTCNVDHKPSNTKVDKTVERKCCVECPPCPAPPVAGPSVFLFPPKPKDTLMISRTPEVTCVVVDVSHEDPEVQFNWYVDGVEVHNAKTKPREEQFNSTFRVVSVLTVVHQDWLNGKEYKCKVSNKGLPAPIEKTISKTKGQPREPQVYTLPPSREEMTKNQVSLTCLVDGFYPSDIAVEWESNGQPENNYDTTPPMLDSDGSFFLYSDLTVDKSRWQQGNVFSCSVMHEALHNHYTQKSLSLSPGK light 2: QSVLTQPPSVSAAPGQKVTISCSGSSSNIGNNYVSWYQQLPGTAPKLLIYDNNKRPSGIPDRFSGSKSGTSTTLGITGLQTGDEADYYCGTWDSRLSAVVFGGGTKLTVLGQPKANPTVTLFPPSSEELQANKATLVCLISDFYPGAVTVAWKADGSPVKAGVETTKPSKQSNNKYAAKSYLSLTPEQWKSHRSYSCQVTHEGSTVEKTVAPTECS heavy 2: QVQLVESGGGVVQPGRSLRLSCAASGFTFSSFGMHWVRQAPGKGLEWVAVISFDGSIKYSVDSVKGRFTISRDNSKNTLFLQMNSLRAEDTAVYYCARDRLNYYDSSGYYHYKYYGMAVWGQGTTVTVSSASTKGPSVFPLAPCSRSTSESTAALGCLVKDYFPEPVTVSWNSGALTSGVHTFPAVLQSSGLYSLESVVTVPSSNFGTQTYTCNVDHKPSNTKVDKTVERKCCVECPPCPAPPVAGPSVFLFPPKPKDTLMISRTPEVTCVVVDVSHEDPEVQFNWYVDGVEVHNAKTKPREEQFNSTFRVVSVLTVVHQDWLNGKEYKCKVSNKGLPAPIEKTISKTKGQPREPQVYTLPPSRKKMTKNQVSLTCLVKGFYPSDIAVEWESNGQPENNYKTTPPMLKSDGSFFLYSKLTVDKSRWQQGNVFSCSVMHEALHNHYTQKSLSLSPGK | 65% | 68%
iPS:327876 (bispecific antibody, human IgG1, kappa, N297G) light 1: DIQMTQSPSSLSASVGDRITITCRASQSISRYLNWYQQKPGKAPKLLIYAASSLQSGIPSRFSGSGSGTDFTLTINSLQPEDFATYFCQQSYSPPFTFGQGTKVDIKRTVAAPSVFIFPPSDEQLKSGTASVVCLLNNFYPREAKVQWKVDNALQSGNSQESVTEQDSKDSTYSLESTLTLSKADYEKHKVYACEVTHQGLSSPVTKSFNRGEC heavy 1: not shown light 2: EIVLTQSPGTLSLSPGERATLSCRASQSVSSGYLTWYQQKPGQAPRLLIYGASSRATGIPDRFSGSGSGTDFTLTISRLEPEDFAVYYCQQYGNSLSRFGQGTKLEIKRTVAAPSVFIFPPSDEQLKSGTASVVCLLNNFYPREAKVQWKVDNALQSGNSQESVTEQDSKDSTYSLKSTLTLSKADYEKHKVYACEVTHQGLSSPVTKSFNRGEC heavy 2: not shown | 77% | 11%
iPS:327877 (bispecific antibody, human IgG1, kappa, N297G) light 1: not shown heavy 1: not shown light 2: EIVLTQSPGTLSLSPGERATLSCRASQSVSSGYLTWYQQKPGQAPRLLIYGASSRATGIPDRFSGSGSGTDFTLTISRLEPEDFAVYYCQQYGNSLSRFGQGTKLEIKRTVAAPSVFIFPPSDEQLKSGTASVVCLLNNFYPREAKVQWKVDNALQSGNSQESVTEQDSKDSTYSLKSTLTLSKADYEKHKVYACEVTHQGLSSPVTKSFNRGEC heavy 2: not shown | 72% | 22%
